± gives the standard deviation of the averaged measurements.
Test: total protein half-life in vivo (active degradation + dilution); higher = more stable protein
[1] = E. coli NCM3722 delta-clpP delta-lon delta-hslV, growth: N-lim chemostat, doubling time 6 h
[2] = E. coli NCM3722 delta-clpP, growth: N-lim chemostat, doubling time 6 h
[3] = E. coli NCM3722 delta-hslV, growth: N-lim chemostat, doubling time 6 h
[4] = E. coli NCM3722 delta-lon, growth: N-lim chemostat, doubling time 6 h
[5] = E. coli NCM3722 delta-smpB, growth: N-lim chemostat, doubling time 6 h
[6] = wild type E. coli NCM3722, growth: C-lim chemostat, doubling time 3 h
[7] = wild type E. coli NCM3722, growth: C-lim chemostat, doubling time 6 h
[8] = wild type E. coli NCM3722, growth: C-lim chemostat, doubling time 12 h
[9] = wild type E. coli NCM3722, growth: N-lim chemostat, doubling time 6 h
[10] = wild type E. coli NCM3722, growth: N-lim chemostat, doubling time 12 h
[11] = wild type E. coli NCM3722, growth: P-lim chemostat, doubling time 6 h
[12] = wild type E. coli NCM3722, growth: P-lim chemostat, doubling time 12 h

Row | Sequence | total protein half-life in vivo [1] [h] | total protein half-life in vivo [2] [h] | total protein half-life in vivo [3] [h] | total protein half-life in vivo [4] [h] | total protein half-life in vivo [5] [h] | total protein half-life in vivo [6] [h] | total protein half-life in vivo [7] [h] | total protein half-life in vivo [8] [h] | total protein half-life in vivo [9] [h] | total protein half-life in vivo [10] [h] | total protein half-life in vivo [11] [h] | total protein half-life in vivo [12] [h]
1 | MAQEIELKFIVNHSAVEALRDHLNTLGGEHHDPVQLLNIYYETPDNWLRGHDMGLRIRGENGRYEMTMKVAGRVTGGLHQRPEYNVALSEPTLDLAQLPTEVWPNGELPADLASRVQPLFSTDFYREKWLVAVDGSQIEIALDQGEVKAGEFAEPICELELELLSGDTRAVLKLANQLVSQTGLRQGSLSKAARGYHLAQGNPAREIKPTTILHVAAKADVEQGLEAALELALAQWQYHEELWVRGNDAAKEQVLAAISLVRHTLMLFGGIVPRKASTHLRDLLTQCEATIASAVSAVTAVYSTETAMAKLALTEWLVSKAWQPFLDAKAQGKISDSFKRFADIHLSRHAAELKSVFCQPLGDRYRDQLPRLTRDIDSILLLAGYYDPVVAQAWLENWQGLHHAIATGQRIEIEHFRNEANNQEPFWLHSGKR | 5.73 ± 0.11 | 5.48 ± 0.56 | 5.22 ± 0.088 | 4.91 ± 1.1 | 4.78 ± 0.12 | 3.09 ± 0.13 | 6.25 ± 0.19 | 10.7 ± 1.1 | 5.37 ± 0.26 | 8.65 ± 0.74 | 6.02 ± 0.58 | 11.6 ± 1.1
2 | MAQEYTVEQLNHGRKVYDFMRWDYWAFGISGLLLIAAIVIMGVRGFNWGLDFTGGTVIEITLEKPAEIDVMRDALQKAGFEEPMLQNFGSSHDIMVRMPPAEGETGGQVLGSQVLKVINESTNQNAAVKRIEFVGPSVGADLAQTGAMALMAALLSILVYVGFRFEWRLAAGVVIALAHDVIITLGILSLFHIEIDLTIVASLMSVIGYSLNDSIVVSDRIRENFRKIRRGTPYEIFNVSLTQTLHRTLITSGTTLMVILMLYLFGGPVLEGFSLTMLIGVSIGTASSIYVASALALKLGMKREHMLQQKVEKEGADQPSILP [P0AG93] |  |  | 6.16 | 5.2883 ± 0.0031 |  | 3.4 ± 0.44 | 5.67 ± 0.76 | 8.4 ± 5.1 |  | 10.2 ± 0.42 | 6.06 ± 1 | 
3 | MAQFYSAKRRTTTRQIITVSVNDLDSFGQGVARHNGKTLFIPGLLPQENAEVTVTEDKKQYARAKVVRRLSDSPERETPRCPHFGVCGGCQQQHASVDLQQRSKSAALARLMKHDVSEVIADVPWGYRRRARLSLNYLPKTQQLQMGFRKAGSSDIVDVKQCPILAPQLEALLPKVRACLGSLQAMRHLGHVELVQATSGTLMILRHTAPLSSADREKLERFSHSEGLDLYLAPDSEILETVSGEMPWYDSNGLRLTFSPRDFIQVNAGVNQKMVARALEWLDVQPEDRVLDLFCGMGNFTLPLATQAASVVGVEGVPALVEKGQQNARLNGLQNVTFYHENLEEDVTKQPWAKNGFDKVLLDPARAGAAGVMQQIIKLEPIRIVYVSCNPATLARDSEALLKAGYTIARLAMLDMFPHTGHLESMVLFSRVK | 5.4 ± 0.1 | 5.11 ± 0.95 | 4.34 ± 0.43 | 4.54 ± 0.058 | 3.9767 ± 0.00076 | 2.96 ± 0.12 | 5.12 ± 0.17 | 9.07 ± 0.16 | 4.203 ± 0.032 | 6.93 ± 0.14 | 4.49 ± 1 | 10.7 ± 2.4
4 | MAQIDFRKKINWHRRYRSPQGVKTEHEILRIFESDRGRIINSPAIRRLQQKTQVFPLERNAAVRTRLTHSMEVQQVGRYIAKEILSRLKELKLLEAYGLDELTGPFESIVEMSCLMHDIGNPPFGHFGEAAINDWFRQRLHPEDAESQPLTDDRCSVAALRLRDGEEPLNELRRKIRQDLCHFEGNAQGIRLVHTLMRMNLTWAQVGGILKYTRPAWWRGETPETHHYLMKKPGYYLSEEAYIARLRKELNLALYSRFPLTWIMEAADDISYCVADLEDAVEKRIFTVEQLYHHLHEAWGQHEKGSLFSLVVENAWEKSRSNSLSRSTEDQFFMYLRVNTLNKLVPYAAQRFIDNLPAIFAGTFNHALLEDASECSDLLKLYKNVAVKHVFSHPDVERLELQGYRVISGLLEIYRPLLSLSLSDFTELVEKERVKRFPIESRLFHKLSTRHRLAYVEAVSKLPSDSPEFPLWEYYYRCRLLQDYISGMTDLYAWDEYRRLMAVEQ | 5.23 ± 0.2 | 5.726 ± 0.025 | 6.52 ± 1.8 | 5.63 ± 0.46 | 5.16 ± 0.065 | 3.281 ± 0.016 | 6.17 ± 0.39 | 11.6 ± 0.46 | 6.14 ± 1.6 | 11 ± 0.68 | 5.52 ± 0.37 | 12.2 ± 0.22
5 | MAQITTTDANEFSSSAEFIPMRGFSNCHLQTMLPRLFRRQVKFTPYWQRLELPDGDFVDLAWSENPAQAQHKPRLVVFHGLEGSLNSPYAHGLVEAAQKRGWLGVVMHFRGCSGEPNRMHRIYHSGETEDASWFLRWLQREFGHAPTAAVGYSLGGNMLACLLAKEGNDLPVDAAVIVSAPFMLEACSYHMEKGFSRVYQRYLLNLLKANAARKLAAYPGTLPINLAQLKSVRRIREFDDLITARIHGYADAIDYYRQCSAMPMLNRIAKPTLIIHAKDDPFMDHQVIPKPESLPPQVEYQLTEHGGHVGFIGGTLLHPQMWLESRIPDWLTTYLEAKSC | 3.69 |  |  |  |  |  |  | 3.84 |  |  | 2.34 | 4.3
6 | MAQLYFYYSAMNAGKSTALLQSSYNYQERGMRTVVYTAEIDDRFGAGKVSSRIGLSSPAKLFNQNSSLFDEIRAEHEQQAIHCVLVDECQFLTRQQVYELSEVVDQLDIPVLCYGLRTDFRGELFIGSQYLLAWSDKLVELKTICFCGRKASMVLRLDQAGRPYNEGEQVVIGGNERYVSVCRKHYKEALQVDSLTAIQERHRHD | 4.73 ± 0.29 | 4.06 ± 0.5 | 3.97 ± 0.089 | 5.17 ± 1.3 | 3.82 ± 0.42 | 2.47 ± 0.051 | 4.98 ± 0.062 | 10.3 ± 0.56 | 3.86 ± 0.31 | 6.8 ± 0.12 | 5.92 ± 0.58 | 11.7 ± 0.69
7 | MARFVVLVIDSFGVGAMKDVTLVRPQDAGANTCGHILSQLPHLQLPTLETLGLINALGYAPGDMQPSDSATWGVAELQHEGGDTFMGHQEILGTRPLPPLRMPFRDVIDRVEQALVSAGWQVERRGDDLQFLWVNQAVAIGDNLEADLGQVYNITANLSVISFDDAIKIGRIVREQVQVGRVITFGGLLTDSQRILDAAESKEGRFIGINAPRSGAYDNGFQVVHMGYGVDEKVQVPQKLYEAGVPTVLVGKVADIVNNPYGVSWQNLVDSQRIMDITLNEFNTHPTAFICTNIQETDLAGHAEDVARYAERLQVVDRNLARLVEAMQPDDCLVVMADHGNDPTIGHSHHTREVVPVLVYQQGMIATQLGVRTTLSDVGATVCEFFRAPPPQNGRSFLSSLRFAGDTL | 4.67 |  |  |  |  |  |  |  |  |  |  | 
8 | MARKWLNLFAGAALSFAVAGNALADEGKITVFAAASLTNAMQDIATQFKKEKGVDVVSSFASSSTLARQIEAGAPADLFISADQKWMDYAVDKKAIDTATRQTLLGNSLVVVAPKASVQKDFTIDSKTNWTSLLNGGRLAVGDPEHVPAGIYAKEALQKLGAWDTLSPKLAPAEDVRGALALVERNEAPLGIVYGSDAVASKGVKVVATFPEDSHKKVEYPVAVVEGHNNATVKAFYDYLKGPQAAEIFKRYGFTIK | 5.7 ± 0.29 | 5.9 ± 0.53 | 6.46 ± 0.2 | 6.16 ± 0.47 | 6.39 ± 0.36 | 2.87 ± 0.23 | 6.01 ± 0.3 | 12.8 ± 0.23 | 5.9 ± 0.19 | 12.7 ± 0.75 | 6.64 ± 0.41 | 13.7 ± 0.95

From the supplement of paper PMC11246515
